Experiments:
Experiment in all cases: Kinase Profiling Assay
Format in all cases: biochemical
Conditions in all cases: 100 μM
PKCα(h) = PKCα(h) (Homo sapiens, UniProt P17252)
DCAMKL2(h) = target: T1, DCAMKL2(h) (Homo sapiens, UniProt Q8N568)
T1 sequence (Q8N568 1-766): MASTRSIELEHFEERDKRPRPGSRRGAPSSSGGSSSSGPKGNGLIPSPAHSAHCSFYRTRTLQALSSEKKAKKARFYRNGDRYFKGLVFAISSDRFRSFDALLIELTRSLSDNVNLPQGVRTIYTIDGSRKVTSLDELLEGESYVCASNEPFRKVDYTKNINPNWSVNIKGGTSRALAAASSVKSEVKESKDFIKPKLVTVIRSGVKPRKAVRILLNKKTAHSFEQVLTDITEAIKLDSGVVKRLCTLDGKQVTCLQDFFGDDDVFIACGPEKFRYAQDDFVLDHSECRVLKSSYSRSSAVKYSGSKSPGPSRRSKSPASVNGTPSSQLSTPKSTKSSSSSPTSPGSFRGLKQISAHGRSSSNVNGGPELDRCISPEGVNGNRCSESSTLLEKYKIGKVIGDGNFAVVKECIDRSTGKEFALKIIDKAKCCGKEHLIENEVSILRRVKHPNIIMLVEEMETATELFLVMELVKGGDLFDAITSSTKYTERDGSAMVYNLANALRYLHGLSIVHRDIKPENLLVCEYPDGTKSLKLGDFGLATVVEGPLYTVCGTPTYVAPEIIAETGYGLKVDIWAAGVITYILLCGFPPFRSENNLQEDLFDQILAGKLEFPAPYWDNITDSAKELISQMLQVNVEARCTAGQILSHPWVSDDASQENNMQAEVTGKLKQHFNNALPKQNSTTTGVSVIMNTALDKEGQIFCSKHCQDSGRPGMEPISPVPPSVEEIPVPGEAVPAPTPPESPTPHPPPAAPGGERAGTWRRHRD

CDK5/p35(h) = CDK5/p35(h) (Homo sapiens, UniProt Q00535)
PKA(h) = PKA(h) (Homo sapiens, UniProt P17612)
WNK2(h) = WNK2(h) (Homo sapiens, UniProt Q9Y3S1)
Tie2(R849W)(h) = Tie2(R849W)(h) (Homo sapiens, UniProt Q02763, R849W)
CK2α2(h) = CK2α2(h) (Homo sapiens, UniProt P19784)
MAPK1(h) = MAPK1(h) (Homo sapiens, UniProt P27361)
Lck(h) = Lck(h) (Homo sapiens, UniProt P06239)
JNK1α1(h) = JNK1α1(h) (Homo sapiens, UniProt P45983)
MKK7β(h) = target: T2, MKK7β(h) (Homo sapiens, UniProt O14733)
T2 sequence (O14733 1-419): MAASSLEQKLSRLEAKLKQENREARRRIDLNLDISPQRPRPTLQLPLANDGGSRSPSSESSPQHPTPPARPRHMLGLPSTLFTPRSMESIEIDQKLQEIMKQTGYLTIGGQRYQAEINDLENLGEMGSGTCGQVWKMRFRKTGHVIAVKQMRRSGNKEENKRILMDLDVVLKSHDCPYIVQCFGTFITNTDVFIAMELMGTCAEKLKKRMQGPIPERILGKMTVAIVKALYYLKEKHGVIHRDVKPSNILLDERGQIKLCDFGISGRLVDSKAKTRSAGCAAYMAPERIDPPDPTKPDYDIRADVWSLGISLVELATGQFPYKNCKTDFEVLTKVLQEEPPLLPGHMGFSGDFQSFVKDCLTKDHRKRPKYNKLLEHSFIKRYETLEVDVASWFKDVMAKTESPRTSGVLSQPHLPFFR

JAK3(h) = target: T3, JAK3(h) (Homo sapiens, UniProt P52333)
T3 sequence (P52333 1-1124): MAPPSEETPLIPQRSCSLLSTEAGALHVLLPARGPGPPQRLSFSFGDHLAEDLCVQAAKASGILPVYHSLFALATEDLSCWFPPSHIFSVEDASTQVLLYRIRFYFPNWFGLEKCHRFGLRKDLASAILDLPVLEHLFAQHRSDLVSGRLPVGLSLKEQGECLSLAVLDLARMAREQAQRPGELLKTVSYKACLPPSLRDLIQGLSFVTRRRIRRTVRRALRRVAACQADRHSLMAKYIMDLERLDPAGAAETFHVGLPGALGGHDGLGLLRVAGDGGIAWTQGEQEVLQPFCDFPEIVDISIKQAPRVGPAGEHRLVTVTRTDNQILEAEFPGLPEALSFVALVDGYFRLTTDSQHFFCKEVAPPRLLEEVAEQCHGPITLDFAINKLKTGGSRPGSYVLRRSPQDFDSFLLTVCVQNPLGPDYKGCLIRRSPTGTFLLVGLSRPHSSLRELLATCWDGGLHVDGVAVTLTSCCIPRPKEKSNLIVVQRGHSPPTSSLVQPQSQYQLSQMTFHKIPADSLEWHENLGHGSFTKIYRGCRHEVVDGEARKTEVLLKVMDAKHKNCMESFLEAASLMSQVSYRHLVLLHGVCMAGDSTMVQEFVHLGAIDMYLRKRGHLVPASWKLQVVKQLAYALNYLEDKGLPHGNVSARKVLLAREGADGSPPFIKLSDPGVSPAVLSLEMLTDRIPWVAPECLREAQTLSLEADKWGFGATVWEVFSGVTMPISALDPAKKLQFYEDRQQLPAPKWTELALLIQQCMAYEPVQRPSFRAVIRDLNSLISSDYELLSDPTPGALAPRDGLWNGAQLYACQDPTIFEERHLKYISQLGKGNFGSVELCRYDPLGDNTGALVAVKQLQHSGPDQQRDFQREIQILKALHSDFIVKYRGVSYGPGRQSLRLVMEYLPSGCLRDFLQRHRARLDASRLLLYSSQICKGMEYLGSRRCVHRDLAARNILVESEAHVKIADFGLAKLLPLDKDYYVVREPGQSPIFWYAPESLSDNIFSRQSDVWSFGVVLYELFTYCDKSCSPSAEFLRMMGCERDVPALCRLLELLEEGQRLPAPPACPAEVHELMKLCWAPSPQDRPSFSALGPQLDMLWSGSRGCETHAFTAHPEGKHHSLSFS

WNK2(h), sequence (Q9Y3S1 whole entry): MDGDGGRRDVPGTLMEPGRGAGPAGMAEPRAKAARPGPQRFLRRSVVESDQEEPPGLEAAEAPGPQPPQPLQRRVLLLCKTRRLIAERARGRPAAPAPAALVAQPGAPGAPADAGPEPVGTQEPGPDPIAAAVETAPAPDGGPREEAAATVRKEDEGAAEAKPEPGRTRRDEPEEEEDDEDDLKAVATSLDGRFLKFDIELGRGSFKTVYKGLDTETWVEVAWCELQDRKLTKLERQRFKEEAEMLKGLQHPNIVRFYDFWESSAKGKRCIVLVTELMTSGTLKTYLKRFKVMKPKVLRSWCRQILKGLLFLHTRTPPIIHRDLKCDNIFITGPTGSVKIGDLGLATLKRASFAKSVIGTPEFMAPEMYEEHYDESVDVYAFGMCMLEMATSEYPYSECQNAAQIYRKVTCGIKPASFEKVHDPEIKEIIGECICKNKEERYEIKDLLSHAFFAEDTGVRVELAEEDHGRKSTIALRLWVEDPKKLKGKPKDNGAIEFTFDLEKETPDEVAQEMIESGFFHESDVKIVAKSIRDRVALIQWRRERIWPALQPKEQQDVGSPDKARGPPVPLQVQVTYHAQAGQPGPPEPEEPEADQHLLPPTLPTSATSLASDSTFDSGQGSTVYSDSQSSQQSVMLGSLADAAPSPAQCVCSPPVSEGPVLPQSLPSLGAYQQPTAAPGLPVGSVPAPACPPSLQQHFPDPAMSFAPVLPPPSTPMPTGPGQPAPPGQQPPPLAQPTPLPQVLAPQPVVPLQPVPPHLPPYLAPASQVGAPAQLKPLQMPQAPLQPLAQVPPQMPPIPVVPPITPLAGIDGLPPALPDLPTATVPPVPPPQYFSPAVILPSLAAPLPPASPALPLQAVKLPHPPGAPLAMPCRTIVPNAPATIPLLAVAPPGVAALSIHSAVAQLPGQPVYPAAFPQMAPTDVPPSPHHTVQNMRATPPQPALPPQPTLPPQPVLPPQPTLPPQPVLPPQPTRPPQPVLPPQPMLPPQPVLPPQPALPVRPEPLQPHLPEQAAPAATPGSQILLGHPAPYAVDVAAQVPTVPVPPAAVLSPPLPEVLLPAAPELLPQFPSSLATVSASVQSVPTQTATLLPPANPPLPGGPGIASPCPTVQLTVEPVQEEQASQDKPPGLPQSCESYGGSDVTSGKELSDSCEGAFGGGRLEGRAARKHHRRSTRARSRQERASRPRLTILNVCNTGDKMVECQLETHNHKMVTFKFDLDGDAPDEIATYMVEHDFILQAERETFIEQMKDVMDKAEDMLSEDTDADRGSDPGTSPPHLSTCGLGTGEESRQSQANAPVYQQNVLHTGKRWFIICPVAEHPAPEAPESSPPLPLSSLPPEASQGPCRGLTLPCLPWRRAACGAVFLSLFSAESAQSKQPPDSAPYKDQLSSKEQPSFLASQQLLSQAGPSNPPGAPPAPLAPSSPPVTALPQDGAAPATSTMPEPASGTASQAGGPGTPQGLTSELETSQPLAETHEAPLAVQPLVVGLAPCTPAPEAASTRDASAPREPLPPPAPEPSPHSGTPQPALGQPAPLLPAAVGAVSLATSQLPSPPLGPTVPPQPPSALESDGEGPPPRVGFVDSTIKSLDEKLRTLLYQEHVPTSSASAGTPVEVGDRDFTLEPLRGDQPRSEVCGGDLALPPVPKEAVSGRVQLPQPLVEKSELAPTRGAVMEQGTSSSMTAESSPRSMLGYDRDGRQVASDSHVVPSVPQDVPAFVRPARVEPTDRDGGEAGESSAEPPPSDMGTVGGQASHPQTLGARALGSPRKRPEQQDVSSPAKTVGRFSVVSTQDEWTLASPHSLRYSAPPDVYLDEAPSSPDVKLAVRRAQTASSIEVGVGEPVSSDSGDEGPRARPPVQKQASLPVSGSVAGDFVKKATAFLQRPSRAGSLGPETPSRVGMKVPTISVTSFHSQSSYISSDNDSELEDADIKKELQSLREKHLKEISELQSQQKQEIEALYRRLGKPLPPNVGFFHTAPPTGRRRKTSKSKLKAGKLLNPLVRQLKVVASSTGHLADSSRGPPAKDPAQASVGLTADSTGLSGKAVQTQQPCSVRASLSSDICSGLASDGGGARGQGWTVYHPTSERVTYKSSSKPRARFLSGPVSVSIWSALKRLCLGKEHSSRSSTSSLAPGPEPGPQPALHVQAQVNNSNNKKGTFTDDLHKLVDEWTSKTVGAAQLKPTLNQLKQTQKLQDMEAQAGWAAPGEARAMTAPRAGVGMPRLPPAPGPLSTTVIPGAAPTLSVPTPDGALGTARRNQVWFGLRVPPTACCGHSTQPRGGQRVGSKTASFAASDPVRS
CDK5/p35(h), sequence (Q00535 whole entry): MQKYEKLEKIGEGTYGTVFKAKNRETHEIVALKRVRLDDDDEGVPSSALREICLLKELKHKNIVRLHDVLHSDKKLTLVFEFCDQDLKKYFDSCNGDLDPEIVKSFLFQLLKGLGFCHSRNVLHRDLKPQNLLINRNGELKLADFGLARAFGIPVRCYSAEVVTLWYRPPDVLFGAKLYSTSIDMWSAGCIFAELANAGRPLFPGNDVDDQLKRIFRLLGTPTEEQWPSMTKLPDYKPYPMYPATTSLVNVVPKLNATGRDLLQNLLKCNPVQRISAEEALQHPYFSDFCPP
CDK5/p35(h), sequence (Q15078 whole entry partner): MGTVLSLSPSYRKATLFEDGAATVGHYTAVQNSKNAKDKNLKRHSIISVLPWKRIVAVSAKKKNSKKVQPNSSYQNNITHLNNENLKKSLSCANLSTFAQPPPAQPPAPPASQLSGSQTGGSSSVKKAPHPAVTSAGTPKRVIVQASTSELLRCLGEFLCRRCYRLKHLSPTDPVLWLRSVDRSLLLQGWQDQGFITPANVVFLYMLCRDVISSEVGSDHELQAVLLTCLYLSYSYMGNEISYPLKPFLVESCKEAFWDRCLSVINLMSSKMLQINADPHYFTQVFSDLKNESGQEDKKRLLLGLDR
CK2α2(h), sequence (P19784 whole entry): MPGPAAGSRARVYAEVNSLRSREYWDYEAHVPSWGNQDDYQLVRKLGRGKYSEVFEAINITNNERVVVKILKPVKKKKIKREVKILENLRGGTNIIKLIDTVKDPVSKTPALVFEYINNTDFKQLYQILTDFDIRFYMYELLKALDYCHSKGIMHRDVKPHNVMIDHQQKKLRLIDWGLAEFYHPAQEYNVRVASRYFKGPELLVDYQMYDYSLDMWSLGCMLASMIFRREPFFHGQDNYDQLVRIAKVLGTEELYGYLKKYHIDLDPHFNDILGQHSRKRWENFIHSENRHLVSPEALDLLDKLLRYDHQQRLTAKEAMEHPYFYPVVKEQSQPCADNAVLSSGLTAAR
Tie2(R849W)(h), sequence (Q02763 23-1124 R849W): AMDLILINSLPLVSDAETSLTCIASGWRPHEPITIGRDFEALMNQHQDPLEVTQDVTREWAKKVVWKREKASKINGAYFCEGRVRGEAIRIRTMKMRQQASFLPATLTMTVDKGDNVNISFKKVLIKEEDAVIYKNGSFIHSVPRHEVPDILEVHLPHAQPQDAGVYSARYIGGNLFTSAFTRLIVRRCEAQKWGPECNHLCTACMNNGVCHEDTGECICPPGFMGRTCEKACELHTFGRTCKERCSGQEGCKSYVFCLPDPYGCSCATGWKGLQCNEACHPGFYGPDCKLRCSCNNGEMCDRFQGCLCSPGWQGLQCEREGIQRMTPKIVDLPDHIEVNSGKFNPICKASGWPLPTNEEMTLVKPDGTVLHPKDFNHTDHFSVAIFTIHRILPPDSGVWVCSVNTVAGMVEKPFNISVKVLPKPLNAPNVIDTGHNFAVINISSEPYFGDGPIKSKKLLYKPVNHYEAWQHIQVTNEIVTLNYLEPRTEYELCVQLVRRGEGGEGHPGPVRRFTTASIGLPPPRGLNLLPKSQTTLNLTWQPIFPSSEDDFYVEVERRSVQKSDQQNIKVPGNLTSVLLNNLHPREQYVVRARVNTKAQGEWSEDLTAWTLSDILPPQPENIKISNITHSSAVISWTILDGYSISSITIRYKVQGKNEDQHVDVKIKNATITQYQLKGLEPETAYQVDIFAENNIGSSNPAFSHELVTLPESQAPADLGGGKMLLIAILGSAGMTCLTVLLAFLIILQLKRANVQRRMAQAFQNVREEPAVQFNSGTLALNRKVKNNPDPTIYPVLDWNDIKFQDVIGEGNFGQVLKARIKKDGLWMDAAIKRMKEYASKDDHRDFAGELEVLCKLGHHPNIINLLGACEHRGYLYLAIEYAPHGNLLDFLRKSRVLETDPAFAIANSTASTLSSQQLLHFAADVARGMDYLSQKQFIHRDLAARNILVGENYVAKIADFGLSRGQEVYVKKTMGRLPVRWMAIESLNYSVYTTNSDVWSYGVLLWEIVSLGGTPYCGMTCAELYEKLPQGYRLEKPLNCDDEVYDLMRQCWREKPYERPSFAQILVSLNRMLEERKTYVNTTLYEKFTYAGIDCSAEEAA

Sequence | % activity (PKCα(h)) | % activity (DCAMKL2(h)) | % activity (CDK5/p35(h)) | % activity (PKA(h)) | % activity (WNK2(h)) | % activity (Tie2(R849W)(h)) | % activity (CK2α2(h)) | % activity (MAPK1(h)) | % activity (Lck(h)) | % activity (JNK1α1(h)) | % activity (MKK7β(h)) | % activity (JAK3(h))
YARAAARQARAKALNRQLGVA [MMI-0200] | 100% | 131% | 92% | 110% | 94% | 89% | 88% | 97% | – | – | – | –
FAKLAARLYRKALARQLGVAA [MMI-0300] | 89% | 81% | 79% | – | 64% | – | – | – | −2% | 97% | 100% | –
KAFAKLAARLYRKALARQLGVAA [MMI-0400] | 86% | 70% | 76% | – | 54% | 108% | 96% | 100% | – | 98% | 94% | 122%
HRRIKAWLKKIKALARQLGVAA [MMI-0500] | 3% | 56% | 59% | 118% | 8% | – | – | – | 359% | – | – | 95%
